Data from patent publication US20250171562A1 (ALK ABELL, published 2025).

B1: CIgG4F4A1(RS) (Fc fusion)
chain 1: GPPCPPCPAPEFLGGPSVFLFPPKPKDTLMISRTPEVTCVVVDVSQEDPEVQFNWYVDGVEVHNAKTKPREEQFNSTYRVVSVLTVLHQDWLNGKEYKCKVSNKGLPSSIEKTISKAKGQPREPQVYTLPPCQEEMTKNQVSLWCLVKGFYPSDIAVEWESNGQPENNYKTTPPVLDSDGSFFLYSRLTVDKSRWQEGNVFSCSVMHEALHNHYTQKSLSLSLGKRSDVQLQESGGGLVQAGGSLRLSCAVSGLSFSSMGWFRQPPGKEREFVAAISLYSGSTYYADSVKGRFTISSDNAKSTVYLQMNSLKPEDAAVYFCAADRQRTWSTFYASRQATYNYWGQGTQVTVTS
chain 2: GPPCPPCPAPEFLGGPSVFLFPPKPKDTLMISRTPEVTCVVVDVSQEDPEVQFNWYVDGVEVHNAKTKPREEQFNSTYRVVSVLTVLHQDWLNGKEYKCKVSNKGLPSSIEKTISKAKGQPREPQVCTLPPSQEEMTKNQVSLSCAVKGFYPSDIAVEWESNGQPENNYKTTPPVLDSDGSFFLVSRLTVDKSRWQEGNVFSCSVMHEALHNHYTQKSLSLSLGKRSEVQLLESGGGLVQPGGSLRLSCAASGFTFGNYDMAWVRQAPGKRPEWVSSIDTGGDITHYADSVKGRFTISRDNAKNTLYLQMNSLRPEDTAVYWCATDEEYALGPNEFDYYGQGTLVTVSS
B2: CIgG4F5A1(RS) (Fc fusion)
chain 1: GPPCPPCPAPEFLGGPSVFLFPPKPKDTLMISRTPEVTCVVVDVSQEDPEVQFNWYVDGVEVHNAKTKPREEQFNSTYRVVSVLTVLHQDWLNGKEYKCKVSNKGLPSSIEKTISKAKGQPREPQVYTLPPCQEEMTKNQVSLWCLVKGFYPSDIAVEWESNGQPENNYKTTPPVLDSDGSFFLYSRLTVDKSRWQEGNVFSCSVMHEALHNHYTQKSLSLSLGKRSDVQLQESGGGLVQPGGSLRLSCAASGSIFSIDIMGWYRQAPGKQRELVATMPEGNYINYADSVKGRLTLSRDKGKNTVYLQLNSLKPEDTAVYYCYGFGVREGRGNVYWGQGTQVTVS
chain 2: B1 chain 2
B3: CIgG4F4A1(G4S)2 (Fc fusion)
chain 1: GPPCPPCPAPEFLGGPSVFLFPPKPKDTLMISRTPEVTCVVVDVSQEDPEVQFNWYVDGVEVHNAKTKPREEQFNSTYRVVSVLTVLHQDWLNGKEYKCKVSNKGLPSSIEKTISKAKGQPREPQVYTLPPCQEEMTKNQVSLWCLVKGFYPSDIAVEWESNGQPENNYKTTPPVLDSDGSFFLYSRLTVDKSRWQEGNVFSCSVMHEALHNHYTQKSLSLSLGKGGGGSGGGGSDVQLQESGGGLVQAGGSLRLSCAVSGLSFSSMGWFRQPPGKEREFVAAISLYSGSTYYADSVKGRFTISSDNAKSTVYLQMNSLKPEDAAVYFCAADRQRTWSTFYASRQATYNYWGQGTQVTVTS
chain 2: GPPCPPCPAPEFLGGPSVFLFPPKPKDTLMISRTPEVTCVVVDVSQEDPEVQFNWYVDGVEVHNAKTKPREEQFNSTYRVVSVLTVLHQDWLNGKEYKCKVSNKGLPSSIEKTISKAKGQPREPQVCTLPPSQEEMTKNQVSLSCAVKGFYPSDIAVEWESNGQPENNYKTTPPVLDSDGSFFLVSRLTVDKSRWQEGNVFSCSVMHEALHNHYTQKSLSLSLGKGGGGSGGGGSEVQLLESGGGLVQPGGSLRLSCAASGFTFGNYDMAWVRQAPGKRPEWVSSIDTGGDITHYADSVKGRFTISRDNAKNTLYLQMNSLRPEDTAVYWCATDEEYALGPNEFDYYGQGTLVTVSS
B4: CIgG4F5A1(G4S)2 (Fc fusion)
chain 1: GPPCPPCPAPEFLGGPSVFLFPPKPKDTLMISRTPEVTCVVVDVSQEDPEVQFNWYVDGVEVHNAKTKPREEQFNSTYRVVSVLTVLHQDWLNGKEYKCKVSNKGLPSSIEKTISKAKGQPREPQVYTLPPCQEEMTKNQVSLWCLVKGFYPSDIAVEWESNGQPENNYKTTPPVLDSDGSFFLYSRLTVDKSRWQEGNVFSCSVMHEALHNHYTQKSLSLSLGKGGGGSGGGGSDVQLQESGGGLVQPGGSLRLSCAASGSIFSIDIMGWYRQAPGKQRELVATMPEGNYINYADSVKGRLTLSRDKGKNTVYLQLNSLKPEDTAVYYCYGFGVREGRGNVYWGQGTQVTVS
chain 2: B3 chain 2
B5: NIgG4F4A1(G4S)3 (Fc fusion)
chain 1: DVQLQESGGGLVQAGGSLRLSCAVSGLSFSSMGWFRQPPGKEREFVAAISLYSGSTYYADSVKGRFTISSDNAKSTVYLQMNSLKPEDAAVYFCAADRQRTWSTFYASRQATYNYWGQGTQVTVTSGGGGSGGGGSGGGGSGPPCPPCPAPEFLGGPSVFLFPPKPKDTLMISRTPEVTCVVVDVSQEDPEVQFNWYVDGVEVHNAKTKPREEQFNSTYRVVSVLTVLHQDWLNGKEYKCKVSNKGLPSSIEKTISKAKGQPREPQVYTLPPCQEEMTKNQVSLWCLVKGFYPSDIAVEWESNGQPENNYKTTPPVLDSDGSFFLYSRLTVDKSRWQEGNVFSCSVMHEALHNHYTQKSLSLSLGK
chain 2: EVQLLESGGGLVQPGGSLRLSCAASGFTFGNYDMAWVRQAPGKRPEWVSSIDTGGDITHYADSVKGRFTISRDNAKNTLYLQMNSLRPEDTAVYWCATDEEYALGPNEFDYYGQGTLVTVSSGGGGSGGGGSGGGGSGPPCPPCPAPEFLGGPSVFLFPPKPKDTLMISRTPEVTCVVVDVSQEDPEVQFNWYVDGVEVHNAKTKPREEQFNSTYRVVSVLTVLHQDWLNGKEYKCKVSNKGLPSSIEKTISKAKGQPREPQVCTLPPSQEEMTKNQVSLSCAVKGFYPSDIAVEWESNGQPENNYKTTPPVLDSDGSFFLVSRLTVDKSRWQEGNVFSCSVMHEALHNHYTQKSLSLSLGK
B6: CIgG4F4A1(G4S)1 (Fc fusion)
chain 1: GPPCPPCPAPEFLGGPSVFLFPPKPKDTLMISRTPEVTCVVVDVSQEDPEVQFNWYVDGVEVHNAKTKPREEQFNSTYRVVSVLTVLHQDWLNGKEYKCKVSNKGLPSSIEKTISKAKGQPREPQVYTLPPCQEEMTKNQVSLWCLVKGFYPSDIAVEWESNGQPENNYKTTPPVLDSDGSFFLYSRLTVDKSRWQEGNVFSCSVMHEALHNHYTQKSLSLSLGKGGGGSDVQLQESGGGLVQAGGSLRLSCAVSGLSFSSMGWFRQPPGKEREFVAAISLYSGSTYYADSVKGRFTISSDNAKSTVYLQMNSLKPEDAAVYFCAADRQRTWSTFYASRQATYNYWGQGTQVTVTS
chain 2: GPPCPPCPAPEFLGGPSVFLFPPKPKDTLMISRTPEVTCVVVDVSQEDPEVQFNWYVDGVEVHNAKTKPREEQFNSTYRVVSVLTVLHQDWLNGKEYKCKVSNKGLPSSIEKTISKAKGQPREPQVCTLPPSQEEMTKNQVSLSCAVKGFYPSDIAVEWESNGQPENNYKTTPPVLDSDGSFFLVSRLTVDKSRWQEGNVFSCSVMHEALHNHYTQKSLSLSLGKGGGGSEVQLLESGGGLVQPGGSLRLSCAASGFTFGNYDMAWVRQAPGKRPEWVSSIDTGGDITHYADSVKGRFTISRDNAKNTLYLQMNSLRPEDTAVYWCATDEEYALGPNEFDYYGQGTLVTVSS
B7: CIgG4F5A1(G4S)1 (Fc fusion)
chain 1: GPPCPPCPAPEFLGGPSVFLFPPKPKDTLMISRTPEVTCVVVDVSQEDPEVQFNWYVDGVEVHNAKTKPREEQFNSTYRVVSVLTVLHQDWLNGKEYKCKVSNKGLPSSIEKTISKAKGQPREPQVYTLPPCQEEMTKNQVSLWCLVKGFYPSDIAVEWESNGQPENNYKTTPPVLDSDGSFFLYSRLTVDKSRWQEGNVFSCSVMHEALHNHYTQKSLSLSLGKGGGGSDVQLQESGGGLVQPGGSLRLSCAASGSIFSIDIMGWYRQAPGKQRELVATMPEGNYINYADSVKGRLTLSRDKGKNTVYLQLNSLKPEDTAVYYCYGFGVREGRGNVYWGQGTQVTVS
chain 2: B6 chain 2
B8: CIgG4F4A1(G4S)3 (Fc fusion)
chain 1: GPPCPPCPAPEFLGGPSVFLFPPKPKDTLMISRTPEVTCVVVDVSQEDPEVQFNWYVDGVEVHNAKTKPREEQFNSTYRVVSVLTVLHQDWLNGKEYKCKVSNKGLPSSIEKTISKAKGQPREPQVYTLPPCQEEMTKNQVSLWCLVKGFYPSDIAVEWESNGQPENNYKTTPPVLDSDGSFFLYSRLTVDKSRWQEGNVFSCSVMHEALHNHYTQKSLSLSLGKGGGGSGGGGSGGGGSDVQLQESGGGLVQAGGSLRLSCAVSGLSFSSMGWFRQPPGKEREFVAAISLYSGSTYYADSVKGRFTISSDNAKSTVYLQMNSLKPEDAAVYFCAADRQRTWSTFYASRQATYNYWGQGTQVTVTS
chain 2: GPPCPPCPAPEFLGGPSVFLFPPKPKDTLMISRTPEVTCVVVDVSQEDPEVQFNWYVDGVEVHNAKTKPREEQFNSTYRVVSVLTVLHQDWLNGKEYKCKVSNKGLPSSIEKTISKAKGQPREPQVCTLPPSQEEMTKNQVSLSCAVKGFYPSDIAVEWESNGQPENNYKTTPPVLDSDGSFFLVSRLTVDKSRWQEGNVFSCSVMHEALHNHYTQKSLSLSLGKGGGGSGGGGSGGGGSEVQLLESGGGLVQPGGSLRLSCAASGFTFGNYDMAWVRQAPGKRPEWVSSIDTGGDITHYADSVKGRFTISRDNAKNTLYLQMNSLRPEDTAVYWCATDEEYALGPNEFDYYGQGTLVTVSS

Biological target: T1, recombinant human IgE (human, UniProt P01854-1 1-428)
T1 construct: made in-house (ALK); preloaded on immobilised FcεRIα in the displacement ELISA
Experiment: IgE-FcεRIα displacement ELISA
Method in brief: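 sdAbs at pM–μM were incubated 1 h on preformed complexes of 13 ng/ml recombinant human IgE with avi-tag-biotinylated human FcεRIα captured on streptavidin.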

T1 sequence (P01854 other isoform, or with tags, fused parts or gaps): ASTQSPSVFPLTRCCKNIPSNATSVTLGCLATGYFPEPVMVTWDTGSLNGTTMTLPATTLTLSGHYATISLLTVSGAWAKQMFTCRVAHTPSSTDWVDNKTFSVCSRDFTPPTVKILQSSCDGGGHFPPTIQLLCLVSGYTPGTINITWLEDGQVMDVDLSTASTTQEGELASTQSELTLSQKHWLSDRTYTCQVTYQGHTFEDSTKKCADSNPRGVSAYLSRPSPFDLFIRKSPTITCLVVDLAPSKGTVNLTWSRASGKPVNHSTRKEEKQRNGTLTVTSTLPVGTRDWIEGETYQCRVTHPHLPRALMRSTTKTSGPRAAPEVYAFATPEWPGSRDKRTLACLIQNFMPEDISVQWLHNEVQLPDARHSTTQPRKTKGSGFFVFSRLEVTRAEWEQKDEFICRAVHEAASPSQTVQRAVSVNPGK

| Binder | EC50 | Max effect |
| --- | --- | --- |
| B1 | 90 nM | 70% |
| B2 | – | 15% |
| B3 | 30 nM | 90% |
| B4 | 580 nM | 55% |
| B5 | – | > 95% |
| B6 | 17 nM | 90% |
| B7 | – | 30% |
| B8 | 50 nM | 90% |
